# Experimental data: patent US20110105733A1 (Ablynx, published 2011)
# T1: human Notch-3 (human, UniProt Q9UM47 40-467, limits assumed)
# T1 construct: Construct not described
# T1 sequence (looked up): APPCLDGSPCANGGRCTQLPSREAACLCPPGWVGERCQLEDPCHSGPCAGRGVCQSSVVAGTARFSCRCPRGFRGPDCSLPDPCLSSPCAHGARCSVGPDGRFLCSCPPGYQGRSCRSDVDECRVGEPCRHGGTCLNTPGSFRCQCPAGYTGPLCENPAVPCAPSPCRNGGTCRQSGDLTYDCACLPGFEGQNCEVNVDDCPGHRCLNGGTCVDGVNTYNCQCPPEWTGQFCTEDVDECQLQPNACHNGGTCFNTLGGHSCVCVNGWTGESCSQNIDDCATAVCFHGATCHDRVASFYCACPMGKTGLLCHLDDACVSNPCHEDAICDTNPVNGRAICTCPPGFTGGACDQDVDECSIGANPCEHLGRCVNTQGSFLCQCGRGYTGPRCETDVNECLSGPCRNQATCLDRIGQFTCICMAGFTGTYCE
# Key:
# [1] = molecular target: T2, rat Jagged-1 (rrJagged-1, R&D Systems Cat #599-JG) (rat, UniProt Q63722 34-1067); test: ELISA: rat Jagged-1 (rrJagged-1) coated at 2 ug/mL, Nanobody series, detection by mouse anti-Myc tag and DAMPO, OD 490 nm
# T2 construct: extracellular domain; Bought reagent; also called non-biotinylated Jagged-1; cold-jagged1
# Description: Two rounds of phage display selection were performed similarly as described above. Binding assays were performed. In short: Maxisorp plate was coated with 100 ul 2 ug/ml of rrJagged-1 (R&D systems) in PBS O/N at 4 C. After washing the plate 4× with PBS the plate was blocked with 4% Marvel in PBS for 30 minutes on shaker. A concentration series of Nanobody (1-1000 nM) was added in 100 ul 2% Marvell/PBS and incubate for 1 hour on shaker. After washing the plate 4× with PBS the Nanobodies were detected with 100 ul 1:5000 Mouse-anti-MycTag in 2% Marvell/PBS for 1 hour and 100 ul 1:5000 DAMPO in 2% Marvell/PBS for 1 hour. After washing the DAMPO was detected with 100 ul OPD, stopped with 50 ul H2SO4 and quantification was performed at 490 nm in a plate reader.
# [2] = molecular target: T3, recombinant human Notch-1/Fc Chimera (R&D Systems Cat No 3647-TK) (human, UniProt P46531 19-526); test: ELISA: human Notch-1/Fc coated at 2 ug/mL, Nanobody series, detection by mouse anti-Myc tag and DAMPO, OD 490 nm
# T3 construct: Bought reagent; also called rhNotch-1/hFc; rhNotch-1; not shown: human Fc (hFc)
# Description: After washing the plate was blocked using 4% Marvel skimmed milk in PBS for 30 minutes on shaker. A concentration series of Nanobody (1 to 1000 nM) was added in 100 microliter 2% Marvell/PBS and incubated for 1 h on shaker. […] PO was detected with 100 microliter OPD and stopped with 50 microliter H2SO4. Quantification was performed at 490 nm in a plate reader.
# [3] = molecular target: T3, recombinant human Notch-1/Fc Chimera …; test: ELISA: human Notch-1 coated at 2 ug/mL, Nanobody series 25 pM-2000 nM, detection by rabbit anti-VHH and DAMPO, OD 490 nm
# Description: (§1) After washing, the plate was blocked using 4% Marvel skimmed milk in PBS for 30 minutes on shaker. A concentration series of the Nanobodies in Table B-5 (25 pM to 2000 nM) was added in 100 microliter 2% Marvell/PBS and incubated for 1 h on shaker. After washing the Nanobodies were detected with 100 microliter 1:2500 R-anti-VHH (1:2500) in 2% Marvell/PBS and 100 microliter 1:5000 DAMPO in 2% Marvell/PBS for 1 h on shaker. PO was detected with 100 microliter OPD and stopped with 50 microliter H2SO4. Quantification was performed at 490 nm in a plate reader.
# human Notch-3 = molecular target: T1, human Notch-3; test: ELISA: human Notch-3 coated at 2 ug/mL, Nanobody series 25 pM-2000 nM, detection by rabbit anti-VHH and DAMPO, OD 490 nm
# Description: as §1
# [4] = molecular target: human Notch-2 (R&D Systems Cat #3735-NT-050), Notch-2-Fc fusion (human) (UniProt Q04721); test: ELISA: human Notch-2 coated at 2 ug/mL, Nanobody series 25 pM-2000 nM, detection by rabbit anti-VHH and DAMPO, OD 490 nm
# [5] = molecular target: T4, human DLL4 (rhDLL4, R&D Systems Cat #1506-D4-050) (human, UniProt Q9NR61 27-529); test: ELISA: rhDLL4 coated at 5 ug/mL, Nanobody series, detection by mouse anti-Myc tag (9E10) and DAMPO, OD 490 nm
# T4 construct: extracellular domain; Bought reagent
# T4 sequence (Q9NR61 27-529): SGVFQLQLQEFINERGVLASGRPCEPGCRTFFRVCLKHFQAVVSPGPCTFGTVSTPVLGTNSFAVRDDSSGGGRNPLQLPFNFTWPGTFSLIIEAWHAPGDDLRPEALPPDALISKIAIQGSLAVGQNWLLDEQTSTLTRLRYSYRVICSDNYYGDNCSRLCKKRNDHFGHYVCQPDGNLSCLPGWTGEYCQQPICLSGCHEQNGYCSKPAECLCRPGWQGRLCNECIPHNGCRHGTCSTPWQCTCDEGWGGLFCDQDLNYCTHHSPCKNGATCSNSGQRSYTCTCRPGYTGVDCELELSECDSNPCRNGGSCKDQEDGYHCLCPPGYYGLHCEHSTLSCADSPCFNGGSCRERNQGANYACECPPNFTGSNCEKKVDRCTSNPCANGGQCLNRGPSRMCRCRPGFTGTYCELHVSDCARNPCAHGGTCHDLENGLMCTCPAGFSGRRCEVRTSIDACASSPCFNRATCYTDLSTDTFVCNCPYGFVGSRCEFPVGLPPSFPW
# Description: Two rounds of phage display selection were performed similarly as described above. Binding assays were performed. In short: Maxisorp plate was coated with 100 ul 5 ug/ml of rhDLL4 (R&D systems) in PBS O/N at 4° C. After washing the plate was blocked with 4% MPBS for 30 minutes hour on shaker. A concentration series of Nanobody (1-1000 nM) was added in 100 ul 2% Marvell/PBS and incubate for 1 hour on shaker. Nanobody was detected with 100 ul 1:5000 Mouse-anti-MycTag (9E10) in 2% Marvell/PBS and with 100 ul 1:5000 DAMPO in 2% Marvell/PBS for 1 hour on shaker. After washing PO was detected with 100 ul OPD and stopped with 50 ul H2SO4. Quantification was performed at 490 nm in a plate reader.
binder,measurement,setting,value
"178A7 (VHH, Nanobody against rat Jagged-1; not shown: C-terminal c-myc tag and His6 tag coded by vector pAX50) VHH: EVQLVESGGGLVQPGGSLRLSCATSGVIFSTAAMGWYRQAPGKSRVLVARMFSDGRTIYAESVKRRFTISRDNAKNTVYLQMNSLEPEDTAVYYCNALQFGAVYWGQGTQVTVSS",EC50 (read off the curve),[1],~20 nM
180F4 (VHH) VHH: EVQLVESGGGLVQAGDSLRLSCAVSGGSFSSYTMGWVRQAPGKEREAVASIWRSGGNTYYADSVKGRFTVSRDNAKHTVYLQMNSLKPEDTAVYYCAAASFAPGSRGYDYWGQGTQVTVSS,EC50 (read off the curve),[2],~20 nM
"181E3 (VHH, Nanobody against human Notch-2, 'generated as above') VHH: EVQLVESGGGLVQPGGSLRLSCAASGFTFGDYAMNWVRQAPGKGLEWVSSISAGGYSTTYADSVKGRFTISRDNAKNTLYLQMNSLNPEDTAVYYCARGDWRYGSRGQGTQVTVSS",binding result,[3],no binding (tested: 2000 nM)
same,binding result,human Notch-3,no binding (tested: 2000 nM)
"181D3 (VHH, Nanobody against human Notch-2, 'generated as above') VHH: EVQLVESGGGLVQAGGSLRLSCAASTNVSSFNTMSWYRQSPRKQREWVATITDGDNTHYADSVKGRFTTSRDNAKNLLYLQMNSLKPEDTAVYYCTGWRATSGGSYGQGTQVTVSS",EC50 (read off the curve),[4],5 nM
same,binding result,[3],no binding (tested: 2000 nM)
same,binding result,human Notch-3,no binding (tested: 2000 nM)
"181D2 (VHH, Nanobody against human Notch-2, 'generated as above') VHH: EVQLVESGGGLVQPGGSLRLSCAASGRINSMNWYRQAPGKEREWVASITSSGTTIYADSVKGRITISEDNAKNTVYLQMNSLKTEDTGVYYCAANLRNARGSYYGQGTQVTVSS",EC50 (read off the curve),[4],5 nM
same,binding result,[3],no binding (tested: 2000 nM)
same,binding result,human Notch-3,no binding (tested: 2000 nM)
"179D12 (VHH, Nanobody against human DLL4; not shown: C-terminal c-myc tag and His6 tag coded by vector pAX50) VHH: EVQLVESGGGLVQAGGSLRLSCVASGDTSEIYDMGWFRQAPGKEREFVSSIHWGGRGTNYTDSVKGRFTISKDNAKNMVYLQMNSLKPEDTAVYYCAATRLIVYTPTGFRQYFDWGQGTQVTVSS",binding result,[5],binds
"179E6 (VHH, Nanobody against human DLL4; not shown: C-terminal c-myc tag and His6 tag coded by vector pAX50) VHH: EVQLVESGGGLVQAGGSLRLSCIASGDTSEIYDMGWFRQAPGKEREFVSSIHWRGRGTNYTDSVEGRFTISKDNAKNMVYLQMNSLKPEDTAVYYCAATRLIVYTPTGFRQYFDWGQGAQVTVSS",binding result,[5],binds
"179A10 (VHH, Nanobody against human DLL4; not shown: C-terminal c-myc tag and His6 tag coded by vector pAX50) VHH: EVQLVESGGGLVQAGGSLRLSCVASGDTSEIYDMGWFRQAPGKEREFVSSIHWGGRGTNYTDSVKGRFTISKDNAKNMVHLQMNSLKPEDTAVYYCAATRLIVYTPTGFRQYFDWGQGTQVTVSS",binding result,[5],binds
"179F7 (VHH, Nanobody against human DLL4; not shown: C-terminal c-myc tag and His6 tag coded by vector pAX50) VHH: EVQLVESGGGLVQSGGSLSLSCAASGSVLRINDMGWYRQAPGKTREMVATITRSGVLNYTDSVKGRFTVSRDDAKNTVYLQMSSLKPEDTAVYSCFANIVIRSSGYFNRYWGQGTLVTVSS",binding result,[5],binds
"179F6 (VHH, Nanobody against human DLL4; not shown: C-terminal c-myc tag and His6 tag coded by vector pAX50) VHH: EVQLVESGGGLVQAGGSLRLSCAASGSDFSGFLLGWYRQPPGKQRELIAQTTDGGRTNYGDSVKGRFTISRDNAKNTWYLQMDSLKPEDTGVYYCNTFPLTSWGQGTQVTVSS",binding result,[5],binds
"181B3 (VHH, detection there was with anti-VHH) VHH: EVQLVESGGGLVQAGGSLRLSCVVSGSILSINTMDWYRQAPGKQREWFAGLSDGGRANYADSVKDRFTIARDNAKNTVYLQMNSLKPGDTAIYYCAADLWDRGATTGRYWGQGTQVTVSS",EC50 (read off the curve),[4],2 nM
same,binding result,[3],no binding (tested: 2000 nM)
same,binding result,human Notch-3,no binding (tested: 2000 nM)
4H2 (VHH) VHH: EVQLVESGGGLVQAGGSLRLSCATSGFTFSRFDMSWFRQAPGKQREFIATIFSGGDTDYIDSVKGRFTISRDNAKNTVYLQMNSLKPEDTAVYYCCPLGIEYAWGQGTQVTVSS,binding result,[3],no binding (tested: 2000 nM)
same,binding result,human Notch-3,no binding (tested: 2000 nM)
180A4 (VHH) VHH: EVQLVESGGGLVQPGGSLRLSCAASGRTSSPIAMGWFRQAPGKEREFVSGITWSGAYTHYANSVKGRFTISRDSAKNTVYLQMNSLKPEDTAVYYCTTATNSTTGYDYWGQGTQVTVSS,EC50 (read off the curve),[2],~7 nM
"50C4 (VHH, Nanobody against human Notch-3) VHH: EVQLVESGGDLVQPGGSLRLSCAASGFTFSTYYMSWVRQAPGKGLEWVSGIYSDGSNTYYADSVKGRFTISRDNAKNTLYLQMNSLKSEDTAVYYCTRPVVVAGSPVSYEYDYIGQGTQVTVSS",EC50 (read off the curve),human Notch-3,~2 nM
"50H9 (VHH, Nanobody against human Notch-3) VHH: EVQLVESGGDLVQPGGSLRLSCAASGFTFSTYYMSWVRQAPGKGLEWVSGIYSDGSNTYYADSVKGRFTISRDNAKNTLYLQMNSLKSEDTAVYYCTRPVVVAGSPVSYEYDYIGQGTQVTVSS",EC50 (read off the curve),human Notch-3,~2 nM
180C1 (VHH) VHH: EVQLVESGGDLVQPGGSLRLSCAASRTVFSISDMGWSRQAPGKERELVASISSDNYTVYADAAKGRFTISRDNSKNTVYLEMNSLKPDDTAVYYCRVVDPLRGKLYWGQGTQVTVSS,EC50 (read off the curve),[2],~20 nM
180B3 (VHH) VHH: EVQLVESGGDLVQPGGSLRLSCAASGTVFSNNDMGWSRQAPGKERELVASFTSGGNTVYADAAKGRFTISRDNSKNTVYLEMNSLKPDDTAVYYCRVVDLLRGKLYWGQGTQVTVSS,EC50 (read off the curve),[2],~6 nM
180F10 (VHH) VHH: EVQLVESGGDLVQPGGSLRLSCAASATVFSNSDMGWSRQAPGKERELVASITTDGNTLYADAAKGRFAIYRDNSKNTVYLEMNSLKPDDTAVYYCRVVDLLRGKLYWGQGTQVTVSS,EC50 (read off the curve),[2],~5 nM
"180F8 (VHH, Nanobody against human Notch-1) VHH: EVQLVESGGDLVQPGGSLRLSCTTSGTVFSINDMGWSRQAPGKGRELVASISSEGTTIYADAAKGRFTISRDNSKNTVYLEMNSLKPDDTAVYYCRVVDPLRGKLYWGQGTQVTVSS",EC50 (read off the curve),[3],10 to 16 nM
same,binding result,human Notch-3,no binding (tested: 2000 nM)
